Source: patent US20120128678A1 (FORERUNNER PHARMA RESEARCH, published 2012)

T1: human TMPRSS11E, endogenous, on cancer cell lines and in clinical cancer tissues (human, UniProt Q9UL52 1-423)
T1 construct: Endogenous protein of h2009, h2087, ME-180 and colo201 cells and of lung, uterine cervix and esophagus cancer tissue sections; also called DESC1
T1 sequence: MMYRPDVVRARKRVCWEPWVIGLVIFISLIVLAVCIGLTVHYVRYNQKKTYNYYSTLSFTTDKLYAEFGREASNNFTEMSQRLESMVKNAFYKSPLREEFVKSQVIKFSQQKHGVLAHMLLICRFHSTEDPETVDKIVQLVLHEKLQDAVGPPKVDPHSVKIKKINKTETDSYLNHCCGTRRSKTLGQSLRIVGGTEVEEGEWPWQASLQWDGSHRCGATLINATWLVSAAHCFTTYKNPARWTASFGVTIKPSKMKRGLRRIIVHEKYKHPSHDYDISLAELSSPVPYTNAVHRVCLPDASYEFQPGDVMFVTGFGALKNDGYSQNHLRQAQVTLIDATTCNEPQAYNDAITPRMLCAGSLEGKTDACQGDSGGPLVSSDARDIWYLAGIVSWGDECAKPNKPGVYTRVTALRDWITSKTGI

T2: human TMPRSS11E, full-length, forced expression on cells (DG44, Ba/F3, SK-Hep-1) (human, UniProt Q9UL52 1-423)
T2 construct: also called DESC1; BaF/TMPRSS11E; not shown: C-terminal tag added through the antisense primer
T2 sequence: T1 sequence

T3: fusion protein of MBP and TMPRSS11E SEA domain (human, UniProt Q9UL52 42-191)
T3 construct: Expressed in E. coli, purified and immobilized for the screening ELISA; also called fusion proteins of MBP and SEA domains
T3 sequence: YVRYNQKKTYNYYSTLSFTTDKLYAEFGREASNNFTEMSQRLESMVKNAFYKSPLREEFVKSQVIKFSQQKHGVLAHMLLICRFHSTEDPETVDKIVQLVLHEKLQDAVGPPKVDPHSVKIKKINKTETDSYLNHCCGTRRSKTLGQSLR

B1: chi.TM191 (FTKO), low-fucose anti-TMPRSS11E mouse-human chimeric antibody (antibody, human IgG1, kappa, V domains shown)
VH: EVKLVESGGGLVKPGGSLKLSCAASGFTFSDYGMAWVRQAPGKGPEWVAFISNLAYSSYYADTVTGRFTISRENAKNTLYLEMSSLRSEDSAMYYCARRIFDYDGDGPYEDYWGQGTSVTVSS
VL: QIVLTQSPAIMSASPGEKVTLTCSATSSVSSRYVHWYQQKSGASPKLWIYGTSNLASGVPARFSGSGSGTSYSLTISSVEAEDAATYYCQQYHNDPPTFGAGTKLELKR
modifications: sugar chain free from alpha-1,6 core-fucose (produced in CHO_FTKO cells)
notes: also called low-fucose chimeric TM191
B2: EA230 (mouse hybridoma antibody) (antibody, V domains shown)
VH: EVKLEESGGALVQPGGSMKLSCVASGFTVSNYWMSWVRQSPEKGLEWVAEVRLKSNNYVTHYAESVKGRFTISRDDSKSSVYLQMNNLRPEDTGIYYCTPFAYWGQGTLVTVSA
VL: QIVLTQSPAILSASPGEKVTLTCSANSSVSSSYLYWHQQKPGSSPKLWIYRTSKLASGVPARFSGSGSGTSYSLTISSMEAEDAASYFCHQWDTYPPTFGGGTKLEIK
B3: TM191 (mouse hybridoma antibody) (antibody, V domains shown)
VH: B1 VH
VL: QIVLTQSPAIMSASPGEKVTLTCSATSSVSSRYVHWYQQKSGASPKLWIYGTSNLASGVPARFSGSGSGTSYSLTISSVEAEDAATYYCQQYHNDPPTFGAGTKLELK
notes: Mouse IgG1 kappa
B4: chi.TM191 (DG), anti-TMPRSS11E mouse-human chimeric antibody (antibody, V domains shown)
VH: B1 VH
VL: B1 VL
notes: Human IgG1/kappa constant regions, produced in DG44 CHO cells; also called chimeric TM191

Tests used:
[1] = target: T1, human TMPRSS11E, endogenous, on cancer …; test: flow cytometry on cancer cell lines h2009, h2087, ME-180, colo201 (FIG. 3)
Experimental: (§1) The TMPRSS11E-constantly expressing cells thus constructed were evaluated for binding to the parental strain thereof by flow cytometry. The anti-TMPRSS11E antibody diluted to an appropriate concentration was added to cells corresponding to 5×10⁵ and reacted for 1 hour on ice. The cells were washed by centrifugation. Then, FITC-labeled anti-human IgG antibodies were added thereto and reacted for 1 hour on ice. The cells were washed by centrifugation and then suspended in a medium containing 2 μg/mL propidium iodide, and the suspension was applied to FACS Calibur (Becton, Dickinson and Company). […] The chimeric antibodies and low-fucose chimeric antibodies had equivalent avidity. Next, avidity to various cancer cell lines was evaluated by flow cytometry.

[2] = target: T2, human TMPRSS11E, full-length, forced …; test: flow cytometry on TMPRSS11E-expressing Ba/F3 cells, FITC anti-human IgG detection (FIG. 2)
Experimental: as §1

[3] = target: T3, fusion protein of MBP and TMPRSS11E SEA …; test: screening ELISA on immobilized MBP-SEA domain fusion protein
Experimental: This fusion protein was used to immunize Balb/c mice or MRL/lpr mice. Hybridomas were established in the same way as above. New England Biolabs Inc. pMALc2x vectors were used in screening, which was performed by ELISA using fusion proteins of MBP and SEA domains that were expressed in E. coli, then purified, and immobilized on a solid phase. […] The nucleotide sequence of the EA230 heavy chain variable region is shown in SEQ ID NO: 53, and its amino acid sequence is shown in SEQ ID NO: 54. The nucleotide sequence of the EA230 light chain variable region is shown in SEQ ID NO: 55, and its amino acid sequence is shown in SEQ ID NO: 56.

[4] = target: T1, human TMPRSS11E, endogenous, on cancer …; test: immunoblot of lysates of cancer cell lines (h2009, ME-180), 0.5 ug/mL EA230 (FIG. 7)
Experimental: (§2) Cell lysates of Ba/F3, TMPRSS11E-expressing Ba/F3 (BaF/TMPRSS11E), a TMPRSS11E-negative cancer cell line VMRC-LCD, and TMPRSS11E-positive cancer cell lines h2009 and ME-180 were prepared. 50 μL of NP-40 Lysis Buffer (0.5% (v/v) Nonidet P40, 20 mM Tris-HCl (pH 7.5), 150 mM NaCl, 5 mM EDTA) was added to 1×10⁶ cells and left at 4° C. for 15 minutes. Then, after centrifugation (14,000 rpm, 15 min), the supernatant was used as lysates. The lysates corresponding to 2×10⁵ cells were separated by SDS-PAGE and then transferred to Immobilon-P (Millipore Corp.) using Trans-Blot SD Semi-Dry Electrophoretic Transfer Cell (Bio-Rad Laboratories, Inc.). The membrane was gently washed with TBS-T (0.05% Tween 20, TBS) and then shaken for 1 hour in TBS-T containing 5% skim milk. After shaking for approximately 10 minutes in TBS-T, 0.5 μg/mL EA230 antibodies diluted with TBS-T containing 1% skim milk were added to the membrane, which was then shaken for 1 hour. […] Since the presumed molecular weight of TMPRSS11E is 47.7 kDa, it seemed that TMPRSS11E that underwent sugar chain modification was probably detected. This means that TMPRSS11E can be detected specifically by immunoblot using EA230.

[5] = target: T2, human TMPRSS11E, full-length, forced …; test: immunoblot of BaF/TMPRSS11E cell lysate, 0.5 ug/mL EA230 (FIG. 7)
Experimental: as §2

[6] = target: T2, human TMPRSS11E, full-length, forced …; test: flow cytometry on TMPRSS11E-expressing SK-Hep-1 cells (FIG. 9)

Row | Binder | binding result [1] | binding result [2] | other results
1 | B1 | binds | binds | –
2 | B2 | – | – | binding result [3]: binds; binding result [4]: binds; binding result [5]: binds
3 | B3 | – | – | binding result [6]: binds
4 | B4 | binds | binds | –
